Test results taken from publication PMC9714796.

Target: T1, Transforming growth factor-β2 (TGF-β2)
T1 sequence (P61812 303-414, species assumed, looked up): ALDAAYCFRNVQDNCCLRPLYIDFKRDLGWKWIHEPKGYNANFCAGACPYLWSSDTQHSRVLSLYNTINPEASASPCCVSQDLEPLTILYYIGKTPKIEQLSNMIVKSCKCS

B1: TGF-βRII-Fc (muTGFbRII-mFc) (Fc fusion)
chain: IPPHVPKSVNSDVMASDNGGAVKLPQLCKFCDVRLSTCDNQKSCMSNCSITAICEKPHEVCVAVWRKNDKNITLETVCHDPKLTYHGFTLEDAASPKCVMKEKKRAGETFFMCACNMEECNDYIIFSEEYTTSSPDLLLVIIQ
IC50 of TGF-βRII-Fc against TGF-β2 (480 pg/mL) signalling in A549 cells with the (CAGA)12 luciferase reporter: > 88000
